The target in assay [1] is T1, HLA-A*02:01 (Homo sapiens, UniProt P04439, D140Y/D185E/D98H/E176V/E277Q/G131W/G231S/I119V/I121R/I166T/I218V/L300P/L318F/N151K/N90K/P208A/P217A/Q86G/Q94H/R138H/R169H/T345S).
T1 construct: made in house
Nature of the assay: MHC binding assay: UV-ligand exchange with β2m ELISA (peptide exchange yield). The conditions noted are these: binding to HLA-A*02:01 evaluated by peptide exchange yield (UV-ligand exchange, β2m ELISA). The method, boiled down:
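Exchange yield is an ELISA read-out: complexes diluted 100-fold, captured on streptavidin plates, detected with HRP anti-β2m and TMB at 450 nm. Standard curve from refolded HLA-A*02:01/MLA-001 (15-500 ng/ml); complexes made by UV-triggered displacement of a photolabile ligand by test peptide.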
A general note: An ELISA detects its analyte on a solid surface through an enzyme-linked reagent.

For assay [2], the system named is CD8+ T cells of healthy HLA-A*02 donors. Description: In vitro immunogenicity: T-cell priming with aAPCs loaded with peptide/MHC and anti-CD28, pMHC multimer readout. The format is cell-based, human. The following applies: in vitro immunogenicity, HLA-A*02 restricted peptides; percentage of positive wells among evaluable. From the text:
In order to obtain information regarding the immunogenicity of the TUMAPs of the present invention, the inventors performed investigations using an in vitro T-cell priming assay based on repeated stimulations of CD8+ T cells with artificial antigen presenting cells (aAPCs) loaded with peptide/MHC complexes and anti-CD28 antibody.
In order to perform in vitro stimulations by artificial antigen presenting cells loaded with peptide-MHC complex (pMHC) and anti-CD28 antibody, the inventors first isolated CD8+ T cells from fresh HLA-A*02 leukapheresis products via positive selection using CD8 microbeads (Miltenyi Biotec, Bergisch-Gladbach, Germany) of healthy donors obtained from the University clinics Mannheim, Germany, after informed consent. PBMCs and isolated CD8+ lymphocytes were incubated in T-cell medium (TCM) until use consisting of RPMI-Glutamax (Invitrogen, Karlsruhe, Germany) supplemented with 10% heat inactivated human AB serum (PAN-Biotech, Aidenbach, Germany), 100 U/ml Penicillin/100 μg/ml Streptomycin (Cambrex, Cologne, Germany), 1 mM sodium pyruvate (CC Pro, Oberdorla, Germany), 20 μg/ml Gentamycin (Cambrex). 2.5 ng/ml IL-7 (PromoCell, Heidelberg, Germany) and 10 U/ml IL-2 (Novartis Pharma, Nürnberg, Germany) were also added to the TCM at this step. Generation of pMHC/anti-CD28 coated beads, T-cell stimulations and readout was performed in a highly defined in vitro system using four different pMHC molecules per stimulation condition and 8 different pMHC molecules per readout condition.
The purified co-stimulatory mouse IgG2a anti human CD28 Ab 9.3 (Jung et al., 1987) was chemically biotinylated using Sulfo-N-hydroxysuccinimidobiotin as recommended by the manufacturer (Perbio, Bonn, Germany). Beads used were 5.6 μm diameter streptavidin coated polystyrene particles (Bangs Laboratories, Illinois, USA).
pMHC used for positive and negative control stimulations were A*0201/MLA-001 (peptide […] (SEQ ID NO. 289) from modified Melan-A/MART-1) and A*0201/DDX5-001 ([…] from DDX5, SEQ ID NO. 290), respectively.
800.000 beads/200 μl were coated in 96-well plates in the presence of 4×12.5 ng different biotin-pMHC, washed and 600 ng biotin anti-CD28 were added subsequently in a volume of 200 μl. Stimulations were initiated in 96-well plates by co-incubating […] CD8+ T cells with 2×10^5 washed coated beads in 200 μl TCM supplemented with 5 ng/ml IL-12 (PromoCell) for 3 days at 37° C. Half of the medium was then exchanged by fresh TCM supplemented with 80 U/ml IL-2 and incubating was continued for 4 days at 37° C. This stimulation cycle was performed for a total of three times. For the pMHC multimer readout using 8 different pMHC molecules per condition, a two-dimensional combinatorial coding approach was used as previously described (Andersen et al., 2012) with minor modifications encompassing coupling to 5 different fluorochromes. Finally, multimeric analyses were performed by staining the cells with Live/dead near IR dye (Invitrogen, Karlsruhe, Germany), CD8-FITC antibody clone SK1 (BD, Heidelberg, Germany) and fluorescent pMHC multimers. For analysis, a BD LSRII SORP cytometer equipped with appropriate lasers and filters was used. Peptide specific cells were calculated as percentage of total CD8+ cells. Evaluation of multimeric analysis was done using the FlowJo software (Tree Star, Oreg., USA). In vitro priming of specific multimer+ CD8+ lymphocytes was detected by comparing to negative control stimulations.
Exemplary flow cytometry results after TUMAP-specific multimer staining for 15 peptides of the invention are shown in FIGS. 3 and 6 together with corresponding negative controls.

The target of assay [3] is T2, HLA-A*02:01 (human).
T2 construct: MHC monomers captured on streptavidin plates; the UV-sensitive peptide is cleaved and exchanged with the test peptide; also called peptide-receptive MHC molecules; MHC class I
Nature of the assay: UV ligand-exchange ELISA (anti-b2m); ++++ = exchange yield >=75%. From the text:
(§1) Candidate peptides for T cell based therapies according to the present invention were further tested for their MHC binding capacity (affinity). The individual peptide-MHC complexes were produced by UV-ligand exchange, where a UV-sensitive peptide is cleaved upon UV-irradiation, and exchanged with the peptide of interest as analyzed. Only peptide candidates that can effectively bind and stabilize the peptide-receptive MHC molecules prevent dissociation of the MHC complexes. To determine the yield of the exchange reaction, an ELISA was performed based on the detection of the light chain (β2m) of stabilized MHC complexes. The assay was performed as generally described in Rodenko et al. (Rodenko et al., 2006).
(§2) 96 well MAXISorp plates (NUNC) were coated over night with 2 ug/ml streptavidin in PBS at room temperature, washed 4× and blocked for 1 h at 37° C. in 2% BSA containing blocking buffer. Refolded HLA-A*02:01/MLA-001 monomers served as standards, covering the range of 15-500 ng/ml. Peptide-MHC monomers of the UV-exchange reaction were diluted 100 fold in blocking buffer. Samples were incubated for 1 h at 37° C., washed four times, incubated with 2 ug/ml HRP conjugated anti-β2m for 1 h at 37° C., washed again and detected with TMB solution that is stopped with […]. Absorption was measured at 450 nm. Candidate peptides that show a high exchange yield (preferably higher than 50%, most preferred higher than 75%) are generally preferred for a generation and production of antibodies or fragments thereof, and/or T cell receptors or fragments thereof, as they show sufficient avidity to the MHC molecules and prevent dissociation of the MHC complexes.

The target in assay [4] is T2, HLA-A*02:01. Nature of the assay: UV ligand-exchange ELISA (anti-b2m); + = exchange yield >=10%.
Text: as §1, §2

The record followed here is patent US20160279215A1, “NOVEL PEPTIDES AND COMBINATION OF PEPTIDES FOR USE IN IMMUNOTHERAPY AGAINST VARIOUS TUMORS” (immatics biotechnologies GmbH, priority 2015, published 2016).

Take “48 (KISDFGLATV; listed as Homo sapiens) [compound 48]”: in the assay with HLA-A*02:01 [1], the Peptide exchange result is given as “+++ (≧50 = +++)”. Moreover, in assay [2], the “Wells positive [%]” value is “++ (20%-49% = ++)”.
The like results for “248 (VLMQDSRLYL; listed as Homo sapiens) [compound 248]” were, in that order, “+++ (≧50 = +++)” and “++ (20%-49% = ++)”.
Consider “261 (GLAALAVHL; listed as Homo sapiens) [compound 261]”, for which, in the assay with HLA-A*02:01 [1], the Peptide exchange entry was “+++ (≧50 = +++)”. Also, the “Wells positive [%]” value in assay [2] was “++ (20%-49% = ++)”.
For “66 (AMFPDTIPRV; listed as Homo sapiens) [compound 66]”, the Peptide exchange result with HLA-A*02:01 [1] is “++ (≧20% = ++)”. Further, the “Wells positive [%]” value in assay [2] was “+ (<20% = +)”.

B1: GLLDCPIFL (peptide)
peptide: GLLDCPIFL
B1 yielded a peptide exchange yield in the assay with HLA-A*02:01 [3] not below 75%.

B2: GLLPSAESIKL (peptide)
peptide: GLLPSAESIKL
On to B2, for which the peptide exchange yield in the assay with HLA-A*02:01 [3] was not below 75%.

B3: VLLNEILEQV (peptide)
peptide: VLLNEILEQV
In the case of B3, the peptide exchange yield in the assay with HLA-A*02:01 [3] is not below 75%.

B4: GPGIFPPPPPQP (peptide)
peptide: GPGIFPPPPPQP
Consider B4, for which the peptide exchange yield with HLA-A*02:01 [4] is 10 to 20%.

B5: FLLEREQLL (peptide)
peptide: FLLEREQLL
For B5, the peptide exchange yield with HLA-A*02:01 [3] was not below 75%.

B6: KLQEKIQEL (peptide)
peptide: KLQEKIQEL
In the assay with HLA-A*02:01 [3], B6 showed a peptide exchange yield not below 75%.

B7: AQHLSTLLL (peptide)
peptide: AQHLSTLLL
For B7, the peptide exchange yield in the assay with HLA-A*02:01 [4] lay in the range of 10 to 20%.

B8: RLFEEVLGV (peptide)
peptide: RLFEEVLGV
B8: the peptide exchange yield in the assay with HLA-A*02:01 [3] is not below 75%.

B9: GLDAFRIFL (peptide)
peptide: GLDAFRIFL
With B9, the peptide exchange yield with HLA-A*02:01 [3] was not below 75%.

B10: SLVSWQLLL (peptide)
peptide: SLVSWQLLL
As for B10, in the assay with HLA-A*02:01 [3], the peptide exchange yield was not below 75%.

B11: FLNAIETAL (peptide)
peptide: FLNAIETAL
For B11, the peptide exchange yield in the assay with HLA-A*02:01 [3] is not below 75%.

B12: QTAPEEAFIKL (peptide)
peptide: QTAPEEAFIKL
Turning to B12, in the assay with HLA-A*02:01 [4], the peptide exchange yield fell in the range of 10 to 20%.

B13: SEMEELPSV (peptide)
peptide: SEMEELPSV
B13: the peptide exchange yield with HLA-A*02:01 [4] fell in the range of 10 to 20%.

B14: NLLDENVCL (peptide)
peptide: NLLDENVCL
B14 showed a peptide exchange yield in the assay with HLA-A*02:01 [3] not below 75%.
